The target of assay [1] is human αV on parental A375M cells (αVβ3 and αVβ5) (human) (UniProt P06756). The assay can be described thus: FACS, supernatant, parental A375M cells (αVβ3 and αVβ5, no αVβ6).
For assay [2] the target is unchanged. Nature of the assay: cell-based or functional assay.
Assay [3] concerns the target cynomolgus β6 on transfected HEK-293 cells (cynomolgus). Nature of the assay: FACS, purified mAb, transiently transfected HEK-293 cells (parental cells 74).
Assay [4] concerns the target mouse αV on transfected HEK-293 cells (mouse) (UniProt P43406). The assay is described as above.
Assay [5] concerns the target T1, mouse β6 on transfected HEK-293 cells (mouse) (UniProt Q9Z0T9).
T1 sequence (looked up): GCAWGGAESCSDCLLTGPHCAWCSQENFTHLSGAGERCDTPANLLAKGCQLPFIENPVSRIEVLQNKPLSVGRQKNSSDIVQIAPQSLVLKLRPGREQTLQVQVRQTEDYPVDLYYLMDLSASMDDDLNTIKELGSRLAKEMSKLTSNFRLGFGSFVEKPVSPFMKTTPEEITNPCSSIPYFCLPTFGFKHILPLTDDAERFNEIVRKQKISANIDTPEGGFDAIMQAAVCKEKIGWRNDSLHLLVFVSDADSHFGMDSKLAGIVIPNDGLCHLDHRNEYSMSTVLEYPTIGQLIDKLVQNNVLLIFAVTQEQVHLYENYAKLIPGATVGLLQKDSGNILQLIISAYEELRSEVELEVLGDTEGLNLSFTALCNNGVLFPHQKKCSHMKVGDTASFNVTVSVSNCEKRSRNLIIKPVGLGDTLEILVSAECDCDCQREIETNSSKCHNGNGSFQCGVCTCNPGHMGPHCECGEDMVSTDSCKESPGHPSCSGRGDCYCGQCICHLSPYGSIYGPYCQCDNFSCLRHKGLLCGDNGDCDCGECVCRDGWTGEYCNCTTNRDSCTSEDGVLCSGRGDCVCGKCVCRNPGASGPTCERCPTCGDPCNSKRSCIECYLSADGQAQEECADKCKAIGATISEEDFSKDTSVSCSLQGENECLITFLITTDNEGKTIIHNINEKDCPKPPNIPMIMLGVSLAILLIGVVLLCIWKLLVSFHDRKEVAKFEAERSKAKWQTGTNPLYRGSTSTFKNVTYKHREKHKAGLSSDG
Described as above.

mouse αV on transfected HEK-293 cells (mouse), sequence (P43406 31-1044): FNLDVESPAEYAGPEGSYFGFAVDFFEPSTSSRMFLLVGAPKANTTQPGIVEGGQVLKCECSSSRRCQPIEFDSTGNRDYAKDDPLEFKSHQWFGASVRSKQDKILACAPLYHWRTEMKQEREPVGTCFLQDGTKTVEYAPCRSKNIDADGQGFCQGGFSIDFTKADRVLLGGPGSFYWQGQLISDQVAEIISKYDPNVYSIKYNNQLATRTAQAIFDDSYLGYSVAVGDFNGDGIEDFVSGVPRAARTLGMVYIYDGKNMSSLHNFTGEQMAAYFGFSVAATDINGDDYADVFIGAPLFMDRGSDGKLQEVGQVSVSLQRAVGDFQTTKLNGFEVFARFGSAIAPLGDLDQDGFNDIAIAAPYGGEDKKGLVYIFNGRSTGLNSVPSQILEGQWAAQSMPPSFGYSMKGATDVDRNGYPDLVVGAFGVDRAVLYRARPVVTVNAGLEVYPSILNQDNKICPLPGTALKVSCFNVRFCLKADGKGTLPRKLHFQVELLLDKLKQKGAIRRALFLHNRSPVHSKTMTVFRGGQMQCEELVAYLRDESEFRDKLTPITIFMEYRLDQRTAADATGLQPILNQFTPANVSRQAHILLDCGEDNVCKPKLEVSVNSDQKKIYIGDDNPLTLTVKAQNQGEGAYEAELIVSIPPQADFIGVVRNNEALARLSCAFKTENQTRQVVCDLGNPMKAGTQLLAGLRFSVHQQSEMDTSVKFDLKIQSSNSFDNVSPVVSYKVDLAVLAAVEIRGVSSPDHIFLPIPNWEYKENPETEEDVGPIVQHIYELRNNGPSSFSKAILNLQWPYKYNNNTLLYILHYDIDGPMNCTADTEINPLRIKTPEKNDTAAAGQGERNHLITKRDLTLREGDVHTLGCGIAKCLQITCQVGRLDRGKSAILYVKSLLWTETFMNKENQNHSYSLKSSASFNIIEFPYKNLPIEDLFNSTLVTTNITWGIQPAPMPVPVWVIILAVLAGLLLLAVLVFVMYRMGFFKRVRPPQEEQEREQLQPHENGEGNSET

B1: sc 97 (antibody, V domains shown)
VH: EVQLVQSGAEVKKPGESLKISCKGSGYSFTSYWIGWVRQMPGKGLEWMGIIYPGDSDTRYSPSFQGQVILSADKSISTAYLQWSSLKASDTAMYYCARHDESSGYYYVFDIWGQGTMVTVSS
VL: SYELTQPPSVSVSPGQTARITCSGDALPKKYAYWYQQKSGQAPVLVIYEDIKRPSGIPERFSGSSSGTMATLTISGAQVEDEADYYCYSTDSSGNHWVFFGGGTKLTVL
On to B1, for which, in assay [1], the A375M % Shifted Cells was found to be 24% and the A375M GeoMean was 1.84.

B2: sc 161 (antibody, V domains shown)
VH: EVQLVQSGAEVKKPGESLKISCKGSGYSFTSYWIGWVRQMPGKGLEWMGIIYPGDSDTRYSPSFQGQVTISADKSISTAYLQWSSLKASDTAMYYCARHGIAAAGFYYYYMDVWGQGTTVTVSS
VL: EIVLTQSPDTLSLSPGERASLSCRASQNVNRNYLVWYQQKPGQAPRLLIYGTSNRATGIPDRFSGSGSGTDFTLTISRLEPEDFAVYYCQQCGSLPFTFGPGTKVDIKR
For B2, in assay [1], the A375M % Shifted Cells turned out to be 11% and the A375M GeoMean stood at 16.7.

B3: sc 264 (antibody, V domains shown)
VH: QVQLQESGPGLVKPSQTLSLTCTVSGGSISSGGYYWSWIRQHPGKGLEWIGYIYYSGRTYNNPSLKSRVTISVDTSKNQFSLKLSSVTAADTAVYYCARVATGRGDYHFYAMDVWGQGTTVTVSS
VL: SYELTQPSSVSVSPGQTARITCSGDVLAKKSARWFHQKPGQAPVLVIYKDSERPSGIPERFSGSSSGTTVTLTISGAQVEDEAAYYCYSAADNNLVFGGGTKLTVL
As for B3, the Percent Inhibition, adhesion of A375M cells to osteopontin peptide, 5 µg/ml in assay [2] stood at 3%. The A375M % Shifted Cells in assay [1] stood at 46%. In assay [1], the A375M GeoMean is 2.35. Moreover, the figures for the percent of cells shifted in assay [3], in assay [4] and in assay [5] were 75%, 71% and 68%, respectively.

B4: sc 320 (antibody, V domains shown)
VH: EVQLVESGGGLVKPGGSLRLSCAASGYTFTNYIMHWVRQAPGKGLEWVSSISISSSYIYYADSVKGRFTISRDNAKNSLYLQMNSLRAEDTAVYYCARDPVPLERRDYYYGMDVWGQGTTVTVSS
VL: QSVLTQPPSMSAAPGQKVTISCSGSSSNIGNNYVSWYQQLPGTAPKLLIYDNNKRPSGIPDRFSGSKSGTSATLGITGLQTGDEADYYCGTWDSSLSAGVFGGGTKLTVL
With B4, in assay [1], the A375M % Shifted Cells turned out to be 15% and the A375M GeoMean came to 23.2.

B5: sc 277 (antibody, V domains shown)
VH: EVQLVQSGAEVKKPGESLKISCKGSGYSFPSYWIGWVRQMPGKGLEWMGIIYPGDSDTRYSPSFQGQVTISADKSISTAYLQWSSLKASDTAMYYCARHPMEDGMDVWGQGTTVTVSS
VL: SYELTQPPSVSVSPGQTARITCSGDALPKKYAFWYQQKSGQAPVLVIYDDNKRPSGIPERFSGSSSGTMATLTITGAQVEDEADYYCYSTDSSGHHVFGGGTKLTVL
Consider B5, for which, in assay [1], the A375M % Shifted Cells is 23% and the A375M GeoMean was 1.86.

B6: sc 133 (antibody, V domains shown)
VH: QVQLVQSGAEVKKPGASVKVSCKASGYTFTGYYMHWVRQAPGQGLEWMGWINPKSGDTNYAQKFQGRVTLTRDTSTSTAYMELSRLRSDDTAVYYCARRLDVWGQGTTVTVSS
VL: QSVLTQPPSVSAAPGQKVTISCSGSSSNIGNNYVSWYQQLPGTAPKLLIYDNNKRPSGIPDRFSGSKSGTSATLGITGLQTGDEADYYCGTWNSSLSAGYVFGTGTKVTV
Take B6: the Percent Inhibition, adhesion of A375M cells to osteopontin peptide, 5 µg/ml in assay [2] was 3%. For the same molecule, in assay [1], the A375M % Shifted Cells was determined as 24% and the A375M GeoMean was 1.79.

The values are drawn from patent publication US20150166663A1.
